According to patent US11814447B2, “Peptide ligands for binding to EphA2” (BICYCLERD LIMITED, priority 2018, dated 2023):
Starred links: 1 amine or outer side, 2 acyl side, 3 side chain; linkers in the order of their positions; H or OH if unused. Positions of bridges follow the written chain, without caps; N, C: chain ends. Non-standard residues stand in square brackets, D forms with d. Primed or numbered codes have the meaning given here. No end group written: not given here. TBMB′ = 1,3,5-tris(bromomethyl)benzene, 1,3,5-tris(methylene)benzene core, three thioethers to Cys; 1Nal = N[C@@H](Cc1cccc2ccccc12)C(=O)O; TBMB = c1c(C[*:1])cc(C[*:3])cc1C[*:2]; Hyp = O=C(O)[C@@H]1C[C@@H](O)CN1; hArg = N=C(N)NCCCC[C@H](N)C(=O)O; hPhe = N[C@@H](CCc1ccccc1)C(=O)O; 4Pal = N[C@@H](Cc1ccncc1)C(=O)O; Tle = CC(C)(C)[C@H](N)C(=O)O; Aib = CC(C)(N)C(=O)O; Sar = CNCC(=O)O

B1: Bicycle Compound Number 124 (TBMB scaffold) (peptide)
peptide: [Sar][Sar]AC[Aib][1Nal]GPFWCPV[dA]RPGC
modifications: linker 4-11-18 via TBMB
notes: also called Sar2-AC(Aib)(1Nal)GPFWCPV(D-Ala)RPGC
B2: Bicycle Compound Number 115 (TBMB scaffold) (peptide)
peptide: [Sar][Sar]ACP[1Nal]GPFWCPV[dA]RPGC
modifications: linker 4-11-18 via TBMB
notes: also called Sar2-ACP(1Nal)GPFWCPV(D-Ala)RPGC
B3: Bicycle Compound Number 133 (TBMB scaffold) (peptide)
peptide: [Sar][Sar]ACP[1Nal]GPFWCPV[dA][hArg]PGC
modifications: linker 4-11-18 via TBMB
notes: also called Sar2-ACP(1Nal)GPFWCPV(D-Ala)(HArg)PGC
B4: Bicycle Compound Number 127 (TBMB scaffold) (peptide)
peptide: [Sar][Sar]ACP[1Nal]G[Aib]FWCPV[dA]RPGC
modifications: linker 4-11-18 via TBMB
notes: also called Sar2-ACP(1Nal)G(Aib)FWCPV(D-Ala)RPGC
B5: Bicycle Compound Number 121 (TBMB scaffold) (peptide)
peptide: [Sar][Sar]ACP[1Nal]GPFWCP[Tle]NRPGC
modifications: linker 4-11-18 via TBMB
notes: also called Sar2-ACP(1Nal)GPFWCP(tBuGly)NRPGC
B6: Bicycle Compound Number 132 (TBMB scaffold) (peptide)
peptide: [Sar][Sar]ACP[1Nal]GPFWCP[Tle]NRP[dA]C
modifications: linker 4-11-18 via TBMB
notes: also called Sar2-ACP(1Nal)GPFWCP(tBuGly)NRP(D-Ala)C
B7: Bicycle Compound Number 129 (TBMB scaffold) (peptide)
peptide: [Sar][Sar]ACP[1Nal]GPFWCP[Tle][dA]RPGC
modifications: linker 4-11-18 via TBMB
notes: also called Sar2-ACP(1Nal)GPFWCP(tBuGly)(D-Ala)RPGC
B8: Bicycle Compound Number 126 (TBMB scaffold) (peptide)
peptide: [Sar][Sar]ACP[1Nal]G[Aib]FWCP[Tle]NRPGC
modifications: linker 4-11-18 via TBMB
notes: also called Sar2-ACP(1Nal)G(Aib)FWCP(tBuGly)NRPGC
B9: Bicycle Compound Number 130 (TBMB scaffold) (peptide)
peptide: [Sar][Sar]ACP[1Nal]GPFWCP[Tle]N[hArg]PGC
modifications: linker 4-11-18 via TBMB
notes: also called Compound 130; Sar2-ACP(1Nal)GPFWCP(tBuGly)N(HArg)PGC
B10: Bicycle Compound Number 131 (TBMB scaffold) (peptide)
peptide: [Sar][Sar]ACP[1Nal]GPFWCP[Tle]NR[Aib]GC
modifications: linker 4-11-18 via TBMB
notes: also called Sar2-ACP(1Nal)GPFWCP(tBuGly)NR(Aib)GC
B11: Bicycle Compound Number 117 (TBMB scaffold) (peptide)
peptide: [Sar][Sar]ACPWGPF[1Nal]CPV[dA]RPGC
modifications: linker 4-11-18 via TBMB
notes: also called Sar2-ACPWGPF(1Nal)CPV(D-Ala)RPGC
B12: Bicycle Compound Number 118 (TBMB scaffold) (peptide)
peptide: [Sar][Sar]ACPWGPF[1Nal]CPVNRP[dA]C
modifications: linker 4-11-18 via TBMB
notes: also called Sar2-ACPWGPF(1Nal)CPVNRP(D-Ala)C

How the values were obtained:
[1] = molecular target: T1, Human EphA2 (Ecto), C-terminal polyHis (Human, UniProt P29317 24-537); assay: fluorescence polarisation competition; competitor fluorescent Compound 66
T1 construct: extracellular domain; also called EPH receptor A2; ephrin type-A receptor 2
T1 sequence (P29317 24-537): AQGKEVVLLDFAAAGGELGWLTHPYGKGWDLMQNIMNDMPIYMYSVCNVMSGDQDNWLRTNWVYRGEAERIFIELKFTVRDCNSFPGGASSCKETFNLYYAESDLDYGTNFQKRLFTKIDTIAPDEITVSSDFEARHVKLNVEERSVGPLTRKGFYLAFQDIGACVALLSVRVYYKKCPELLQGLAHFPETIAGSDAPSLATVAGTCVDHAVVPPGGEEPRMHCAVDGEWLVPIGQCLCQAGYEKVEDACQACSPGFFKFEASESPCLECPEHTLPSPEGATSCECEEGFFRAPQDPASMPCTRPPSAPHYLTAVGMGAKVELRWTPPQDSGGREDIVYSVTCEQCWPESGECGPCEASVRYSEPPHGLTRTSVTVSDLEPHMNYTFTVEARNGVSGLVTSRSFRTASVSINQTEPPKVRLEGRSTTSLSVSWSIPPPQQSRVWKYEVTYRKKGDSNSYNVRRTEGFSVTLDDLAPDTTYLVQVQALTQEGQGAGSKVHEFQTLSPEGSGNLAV
Method: (§1) Peptides without a fluorescent tag were tested in competition with a peptide with a fluorescent tag and a known Kd (Table 2). Peptides were diluted to an appropriate concentration in assay buffer as described in the direct binding assay with a maximum of 5% DMSO, then serially diluted 1 in 2. […] Measurements were conducted as for the direct binding assay, however the gain was determined prior to the first measurement. Data analysis was in Systat Sigmaplot version 12.0 where the mP values were fit to a user defined cubic equation to generate a Ki value: […]

[2] = molecular target: T1, Human EphA2 (Ecto), C-terminal polyHis; assay: fluorescence polarisation competition; competitor fluorescent Compound 18
Method: as §1

Row | Binder | Ki [1] [nM] | Ki [2] [nM]
1 | [Sar][Sar]ACPWGPFWCPVN[hArg]PGC (linker 4-11-18 via TBMB) [Bicycle Compound Number 103 (TBMB scaffold)] | 169 | 126
2 | [Sar][Sar]ACPWGPAWCPVNRPGC (linker 4-11-18 via TBMB′, also called Compound 83) [Bicycle Compound Number 83 (TBMB scaffold)] | 288 | 199
3 | [Sar][Sar]ACPWGPFWCPVNRPAC (linker 4-11-18 via TBMB) [Bicycle Compound Number 111 (TBMB scaffold)] | 238 | 108
4 | [Sar][Sar]ACPWGPFWCPVNRP[dA]C (linker 4-11-18 via TBMB) [Bicycle Compound Number 112 (TBMB scaffold)] | – | 89
5 | [Sar][Sar]ACPWGPFWCPVNRAGC (linker 4-11-18 via TBMB) [Bicycle Compound Number 104 (TBMB scaffold)] | 194 | 124
6 | [Sar][Sar]ACPWGPFWCPV[dA]RPGC (linker 4-11-18 via TBMB) [Bicycle Compound Number 102 (TBMB scaffold)] | 312 | 317
7 | [Sar][Sar]AC[Aib][1Nal]GPFWCPVNRPGC (linker 4-11-18 via TBMB) [Bicycle Compound Number 113 (TBMB scaffold)] | 6.6 | 10
8 | B1 | – | 26
9 | [Sar][Sar]AC[Aib][1Nal]GPFWCPVNRP[dA]C (linker 4-11-18 via TBMB) [Bicycle Compound Number 125 (TBMB scaffold)] | 0.61 | 6.4
10 | ACRVSPEYCPFGPEWCA (linker 2-9-16 via TBMB, also called Compound 37) [Bicycle Compound Number 37 (TBMB scaffold)] | 61.2 | –
11 | ACRVSPEYCPFGPYWCA (linker 2-9-16 via TBMB, also called Compound 38) [Bicycle Compound Number 38 (TBMB scaffold)] | 26.5 | –
12 | [Sar][Sar]ACPWGPFWCPVNR[Hyp]GC (linker 4-11-18 via TBMB) [Bicycle Compound Number 107 (TBMB scaffold)] | 85.8 | 48.7
13 | B2 | 1.64 | 12.5
14 | [Sar][Sar]ACP[1Nal]GPFWCPVNRP[dA]C (linker 4-11-18 via TBMB) [Bicycle Compound Number 116 (TBMB scaffold)] | 3.2 | 2.95
15 | [Sar][Sar]ACPWGP[hPhe]WCPVNRPGC (linker 4-11-18 via TBMB′, also called Compound 87) [Bicycle Compound Number 87 (TBMB scaffold)] | – | 162
16 | ACPWGPFWCPVNRPGCA (linker 2-9-16 via TBMB, also called Compound 69) [Bicycle Compound Number 69 (TBMB scaffold)] | 70.1 | 107
17 | ACRVSPEYCPFGPVWCAGAAA (linker 2-9-16 via TBMB, also called Compound 34) [Bicycle Compound Number 34 (TBMB scaffold)] | 77.4 | –
18 | [Sar][Sar]AC[Aib][1Nal]G[Aib]FWCPVNR[Aib]GC (linker 4-11-18 via TBMB) [Bicycle Compound Number 135 (TBMB scaffold)] | 30 | 43
19 | [Sar][Sar]ACP[1Nal]G[Aib]FWCP[Tle]N[hArg]PGC (linker 4-11-18 via TBMB) [Bicycle Compound Number 136 (TBMB scaffold)] | 15 | 23
20 | [Sar][Sar]ACPWG[Aib]F[1Nal]CPVNRPGC (linker 4-11-18 via TBMB) [Bicycle Compound Number 123 (TBMB scaffold)] | 46 | 63
21 | [Sar][Sar]ACP[1Nal]GPFWCPVN[hArg]PGC (linker 4-11-18 via TBMB, also called Compound 122) [Bicycle Compound Number 122 (TBMB scaffold)] | 8 | 9.55
22 | [Sar][Sar]ACP[1Nal]GPFWCPVN[hArg]P[dA]C (linker 4-11-18 via TBMB) [Bicycle Compound Number 134 (TBMB scaffold)] | 6.15 | 1.2
23 | B3 | 3.7 | 14

Row | Binder | Ki [1] [nM] | Ki [2] [nM]
24 | B4 | 33 | 40
25 | [Sar][Sar]ACP[1Nal]G[Aib]FWCPVNRP[dA]C (linker 4-11-18 via TBMB) [Bicycle Compound Number 128 (TBMB scaffold)] | 16 | 15
26 | ACPWGPAWCPVRDTNCA (linker 2-9-16 via TBMB, also called Compound 42) [Bicycle Compound Number 42 (TBMB scaffold)] | 316 | –
27 | B5 | 2 | 3.65
28 | B6 | 8.7 | 7.7
29 | B7 | 15 | 23
30 | AHDVPCPWGPFWCPVNRPGCA (linker 6-13-20 via TBMB (inferred), also called Compound 59) [Bicycle Compound Number 59 (TBMB scaffold)] | – | 0.54
31 | ARDDPCPWGPFWCPVNRPGCA (linker 6-13-20 via TBMB (inferred), also called Compound 62) [Bicycle Compound Number 62 (TBMB scaffold)] | 28 | –
32 | [Sar][Sar]ACPWGPFWCPVNR[Aib]GC (linker 4-11-18 via TBMB, also called Compound 110) [Bicycle Compound Number 110 (TBMB scaffold)] | 140 | 75
33 | B8 | 19 | 15
34 | [Sar][Sar]ACPWGP[4Pal]WCPVNRPGC (linker 4-11-18 via TBMB′, also called Compound 84) [Bicycle Compound Number 84 (TBMB scaffold)] | 81.5 | 33.5
35 | [Sar][Sar]ACPWGPFWCP[Tle]NRPGC (linker 4-11-18 via TBMB, also called Compound 100) [Bicycle Compound Number 100 (TBMB scaffold)] | 112 | 58.3
36 | AEGLPCPWGPFWCPVNRPGCA (linker 6-13-20 via TBMB (inferred), also called Compound 55) [Bicycle Compound Number 55 (TBMB scaffold)] | 6.15 | 11.3
37 | B9 | – | 0.29
38 | [Sar][Sar]ACP[1Nal]GPFWCP[Tle]N[hArg][Aib]GC (linker 4-11-18 via TBMB) [Bicycle Compound Number 138 (TBMB scaffold)] | – | 5.1
39 | B10 | 6.8 | 11
40 | ADVHCPWGPFWCPVNRPGCA (linker 5-12-19 via TBMB (inferred), also called Compound 57) [Bicycle Compound Number 57 (TBMB scaffold)] | 1.2 | 0.48
41 | [Sar][Sar]ACP[1Nal]GPF[1Nal]CPVNRPGC (linker 4-11-18 via TBMB, also called Compound 120) [Bicycle Compound Number 120 (TBMB scaffold)] | 0.98 | 1.4
42 | [Sar][Sar]ACPWG[Aib]FWCPVNRPGC (linker 4-11-18 via TBMB′, also called Compound 80) [Bicycle Compound Number 80 (TBMB scaffold)] | 187 | 120
43 | [Sar][Sar]ACPWGPF[1Nal]CPVNRPGC (linker 4-11-18 via TBMB′, also called Compound 96) [Bicycle Compound Number 96 (TBMB scaffold)] | 68.1 | 31.3
44 | B11 | 75 | 53
45 | B12 | – | 37
